{"source": "paper PMC9770967", "about": "“Native holdup (nHU) to measure binding affinities from cell extracts” (Science Advances, 2022)", "molecules": {"B1": {"name": "SNX5: component of the SNX-BAR complex (protein, UniProt Q9Y5X3 2-404, looked up)", "Sorting nexin-5": "AAVPELLQQQEEDRSKLRSVSVDLNVDPSLQIDIPDALSERDKVKFTVHTKTTLPTFQSPEFSVTRQHEDFVWLHDTLIETTDYAGLIIPPAPTKPDFDGPREKMQKLGEGEGSMTKEEFAKMKQELEAEYLAVFKKTVSSHEVFLQRLSSHPVLSKDRNFHVFLEYDQDLSVRRKNTKEMFGGFFKSVVKSADEVLFTGVKEVDDFFEQEKNFLINYYNRIKDSCVKADKMTRSHKNVADDYIHTAACLHSLALEEPTVIKKYLLKVAELFEKLRKVEGRVSSDEDLKLTELLRYYMLNIEAAKDLLYRRTKALIDYENSNKALDKARLKSKDVKLAEAHQQECCQKFEQLSESAKEELINFKRKRVAAFRKNLIEMSELEIKHARNNVSLLQSCIDLFKNN"}, "B2": {"name": "SNX2: component of the SNX-BAR complex (protein, UniProt O60749 1-519, looked up)", "Sorting nexin-2": "MAAEREPPPLGDGKPTDFEDLEDGEDLFTSTVSTLESSPSSPEPASLPAEDISANSNGPKPTEVVLDDDREDLFAEATEEVSLDSPEREPILSSEPSPAVTPVTPTTLIAPRIESKSMSAPVIFDRSREEIEEEANGDIFDIEIGVSDPEKVGDGMNAYMAYRVTTKTSLSMFSKSEFSVKRRFSDFLGLHSKLASKYLHVGYIVPPAPEKSIVGMTKVKVGKEDSSSTEFVEKRRAALERYLQRTVKHPTLLQDPDLRQFLESSELPRAVNTQALSGAGILRMVNKAADAVNKMTIKMNESDAWFEEKQQQFENLDQQLRKLHVSVEALVCHRKELSANTAAFAKSAAMLGNSEDHTALSRALSQLAEVEEKIDQLHQEQAFADFYMFSELLSDYIRLIAAVKGVFDHRMKCWQKWEDAQITLLKKREAEAKMMVANKPDKIQQAKNEIREWEAKVQQGERDFEQISKTIRKEVGRFEKERVKDFKTVIIKYLESLVQTQQQLIKYWEAFLPEAKAIA"}, "B3": {"name": "SNX6: component of the SNX-BAR complex (protein, UniProt Q9UNH7 1-406, looked up)", "Sorting nexin-6": "MMEGLDDGPDFLSEEDRGLKAINVDLQSDAALQVDISDALSERDKVKFTVHTKSSLPNFKQNEFSVVRQHEEFIWLHDSFVENEDYAGYIIPPAPPRPDFDASREKLQKLGEGEGSMTKEEFTKMKQELEAEYLAIFKKTVAMHEVFLCRVAAHPILRRDLNFHVFLEYNQDLSVRGKNKKEKLEDFFKNMVKSADGVIVSGVKDVDDFFEHERTFLLEYHNRVKDASAKSDRMTRSHKSAADDYNRIGSSLYALGTQDSTDICKFFLKVSELFDKTRKIEARVSADEDLKLSDLLKYYLRESQAAKDLLYRRSRSLVDYENANKALDKARAKNKDVLQAETSQQLCCQKFEKISESAKQELIDFKTRRVAAFRKNLVELAELELKHAKGNLQLLQNCLAVLNGDT"}, "B4": {"name": "ZC3HAV1 (protein, UniProt Q7Z2W4 2-902, looked up)", "Zinc finger CCCH-type …": "ADPEVCCFITKILCAHGGRMALDALLQEIALSEPQLCEVLQVAGPDRFVVLETGGEAGITRSVVATTRARVCRRKYCQRPCDNLHLCKLNLLGRCNYSQSERNLCKYSHEVLSEENFKVLKNHELSGLNKEELAVLLLQSDPFFMPEICKSYKGEGRQQICNQQPPCSRLHICDHFTRGNCRFPNCLRSHNLMDRKVLAIMREHGLNPDVVQNIQDICNSKHMQKNPPGPRAPSSHRRNMAYRARSKSRDRFFQGSQEFLASASASAERSCTPSPDQISHRASLEDAPVDDLTRKFTYLGSQDRARPPSGSSKATDLGGTSQAGTSQRFLENGSQEDLLHGNPGSTYLASNSTSAPNWKSLTSWTNDQGARRKTVFSPTLPAARSSLGSLQTPEAVTTRKGTGLLSSDYRIINGKSGTQDIQPGPLFNNNADGVATDITSTRSLNYKSTSSGHREISSPRIQDAGPASRDVQATGRIADDADPRVALVNDSLSDVTSTTSSRVDDHDSEEICLDHLCKGCPLNGSCSKVHFHLPYRWQMLIGKTWTDFEHMETIEKGYCNPGIHLCSVGSYTINFRVMSCDSFPIRRLSTPSSVTKPANSVFTTKWIWYWKNESGTWIQYGEEKDKRKNSNVDSSYLESLYQSCPRGVVPFQAGSRNYELSFQGMIQTNIASKTQKDVIRRPTFVPQWYVQQMKRGPDHQPAKTSSVSLTATFRPQEDFCFLSSKKYKLSEIHHLHPEYVRVSEHFKASMKNFKIEKIKKIENSELLDKFTWKKSQMKEEGKLLFYATSRAYVESICSNNFDSFLHETHENKYGKGIYFAKDAIYSHKNCPYDAKNVVMFVAQVLVGKFTEGNITYTSPPPQFDSCVDTRSNPSVFVIFQKDQVYPQYVIEYTEDKACVIS"}}, "type_in_all_cases": "binding, human", "key": {"full-length SNX27": {"target": "full-length SNX27", "experiment": "nHU-MS, recombinant full-length SNX27 bait, total Jurkat extracts", "details": "apparent, Fig. 4D, n = 6", "procedure": "(§1) The empty His6-AviTag-MBP-TEV vector was used to produce biotinylated MBP for control experiments. Proteins were coexpressed with BirA biotin ligase (PET21a-BirA, Addgene, no. 20857) in Escherichia coli BL21(DE3) cells. At isopropyl-β-D-thiogalactopyranoside (IPTG) induction (1 mM IPTG at 18°C overnight), 50 μM biotin was added to the media. Harvested cells were lysed in a buffer containing 50 mM tris (pH 7.5), 150 to 300 mM NaCl, 50 μM biotin, 2 mM β-mercaptoethanol, cOmplete EDTA-free protease inhibitor cocktail (Roche, Basel, Switzerland), 1% Triton X-100, and trace amount of deoxyribonuclease, ribonuclease, and lysozyme. Lysates were frozen at −20°C before further purification steps. Lysates were sonicated and centrifuged for clarification. Expressed proteins were captured on in-house prepacked Ni-IDA (Protino Ni-IDA Resin, Macherey-Nagel, Duren, Germany) columns and were washed with at least 10 column volumes of cold wash buffer [50 mM tris (pH 7.5), 150 mM NaCl, and 2 mM β-mercaptoethanol] before elution with 250 mM imidazole. The Ni elution was collected directly on a preequilibrated amylose column (amylose high flow resin, New England Biolabs, Ipswich, MA). Amylose column was washed with 5 column volumes of cold wash buffer before fractionated elution in a buffer containing 25 mM Hepes (pH 7.5), 150 mM NaCl, 1 mM TCEP, 10% glycerol, 5 mM maltose, and cOmplete EDTA-free protease inhibitor cocktail. The concentration of proteins was determined by their ultraviolet absorption at 280 nm before aliquots were snap-frozen in liquid nitrogen and stored at −80°C.\n(§2) For saturating streptavidin resin with biotinylated peptides or biotin, 50 μl of streptavidin resin was mixed with biotin or peptide at 40 to 60 μM concentration in 6 to 6.5 resin volume for 60 min. To saturate streptavidin resin with biotinylated proteins, 50 μl of streptavidin resin (Streptavidin Sepharose High Performance, Cytiva) was mixed with biotinylated MBP or MBP-PDZ at 40 to 50 μM concentration in 20× resin volume for 60 min. After saturation, resins were washed a single time [10 resin volume, holdup buffer: 50 mM tris (pH 7.5), 300 mM NaCl, and 1 mM TCEP, 0.22-μm filtered] and were depleted with biotin (10 resin volume, 10 min, holdup buffer supplemented with 100 μM biotin). Last, resins were washed two times (10 resin volume, holdup buffer).\n(§3) For single-point nHU experiments carried out at ~10 μM bait concentration, 50 μl of saturated streptavidin resin was mixed with 200 μl of cell lysate (2 mg/ml). Titration experiments were carried out by mixing control and bait-saturated resin and keeping the total resin volume constant; e.g., ~5 μM bait concentration can be achieved by mixing 25 μl of bait-saturated streptavidin resin with 25 μl of control resin and 200 μl of cell lysate (2 mg/ml). Control and bait-saturated resins were prepared in larger amounts, and a serial dilution was prepared with these presaturated resins to achieve different resin ratios.\nUnless specified elswhere, the nHU mixture was incubated at 4°C for 2 hours. After the incubation ended, the resin was separated from the supernatant by a brief centrifugation (15 s, 2000 g). Then, half of the supernatant was removed by pipetting without any delay to avoid any resin contamination; e.g., 100 μl of supernatant is collected if 200 μl of cell lysate was used as analyte. Alternatively, the supernatant can be centrifuged an additional time to clarify it further, removing any possible resin contamination. […]"}, "SNX27_PDZ [1]": {"test_system": "SNX27_PDZ", "experiment": "nHU-MS, SNX27_PDZ bait, total Jurkat extracts, series 1", "details": "nHU-MS, total Jurkat extract", "procedure": "as §1, §2, §3\nUnless specified elswhere, the nHU mixture was incubated at 4°C for 2 hours. After the incubation ended, the resin was separated from the supernatant by a brief centrifugation (15 s, 2000 g). Then, half of the supernatant was removed by pipetting without any delay to avoid any resin contamination; e.g., 100 μl of supernatant is collected if 200 μl of cell lysate was used as analyte. Alternatively, the supernatant can be centrifuged an additional time to clarify it further, removing any possible resin contamination. In principle, the separation of the supernatant should be as fast as possible since any delay can perturb the equilibrium. […] Alternatively, the resin can be separated from the supernatant using filter plates (e.g., various products of Millipore, Burlington, MA) or spin columns (e.g., Pierce spin cups—cellulose acetate filter from Thermo Fisher Scientific, Waltham, MA) to achieve faster separation. […]"}, "SNX27_PDZ [2]": {"test_system": "SNX27_PDZ", "experiment": "AP-MS control pull-down on leftover resin, SNX27_PDZ bait, total Jurkat extracts", "details": "AP-MS control pull-down, total Jurkat extract", "procedure": "Leftover beads from nHU-MS experiments were washed three times immediately after the separation of the supernatant [10 resin volume in buffer containing 50 mM tris (pH 8.5), 150 mM NaCl, 1% Triton X-100, 10× cOmplete EDTA-free protease inhibitor cocktail, 2 mM EDTA, and 1 mM TCEP]. Then, the beads were washed two times [10 resin volume buffer containing 50 mM tris (pH 8.5), 150 mM NaCl, and 1 mM TCEP]. Last, captured protein was eluted from the resin in two steps, and the eluted fractions were pooled. For each elution, the beads were incubated for 30 min with three resin volume buffer containing 20 mM tris (pH 8.5), 100 mM NaCl, 500 μM TCEP, and 8 M urea. Between each step, the beads were separated by mild centrifugation, and the supernatant was removed by gentle pipetting.\nThe nHU samples were precipitated with trichloroacetic acid (TCA) 20% overnight at 4°C and centrifuged at 14,000 rpm for 10 min at 4°C. The protein pellets were washed twice with 1 ml of cold acetone and air-dried. The protein extracts were solubilized in 8 M urea, reduced with 5 mM TCEP for 30 min, and alkylated with 10 mM iodoacetamide for 30 min in the dark. Double digestion was performed at 37°C with 500 ng of endoproteinase Lys-C (Wako, Richmond, USA) for 4 hours, followed by fourfold dilution and an overnight digestion with 500 ng of trypsin (Promega, Charbonnieres les Bains, France). Peptide mixtures were then desalted on a C18 spin-column and dried on a speed vacuum.\nSamples were analyzed using an Ultimate 3000 nano-RSLC coupled in line via a nano-electrospray ionization source, with an LTQ-Orbitrap ELITE mass spectrometer (Thermo Fisher Scientific, San Jose, CA) or with the Orbitrap Exploris 480 mass spectrometer (Thermo Fisher Scientific, Bremen, Germany) equipped with a high field asymmetric ion mobility spectrometry (FAIMS) module. Peptide mixtures were injected in 0.1% trifluoroacetic acid on a C18 Acclaim PepMap100 trap column [75 μm inner diameter (ID) × 2 cm, 3 μm, 100 Å, Thermo Fisher Scientific] for 3 min at 5 μl/min with 2% acetonitrile (ACN) and 0.1% formic acid (FA) in H2O and then separated on a C18 Acclaim PepMap100 nano-column (75 μm ID × 50 cm, 2.6 μm, 150 Å, Thermo Fisher Scientific) at 300 nl/min and 40°C with a 90-min linear gradient from 5 to 30% buffer B (A: 0.1% FA in H2O/B: 80% ACN, 0.1% FA in H2O) and regeneration at 5% B. Spray voltage was set to 2.1 kV and heated capillary temperature was set to 280°C.\nFor the Orbitrap Elite, the mass spectrometer was operated in positive ionization mode in data-dependent mode with survey scans from mass/charge ratio (m/z) 350 to 1500 acquired in the Orbitrap at a resolution of 120,000 at m/z 400. The 20 most intense peaks from survey scans were selected for further fragmentation in the linear ion trap with an isolation window of 2.0 Da and were fragmented by collision-induced dissociation (CID) with a normalized collision energy of 35% (TOP 20 CID method). Unassigned and single-charged states were excluded from fragmentation. The ion target value for the survey scans (in the Orbitrap) and the MS2 mode (in the linear ion trap) were set to 1E6 and 5E3, respectively, and the maximum injection time was set to 100 ms for both scan modes. Dynamic exclusion was set to 20 s after one repeat count with mass width at ±10 parts per million (ppm).\nProteins were identified by database search using SequestHT (Thermo Fisher Scientific) with Proteome Discoverer 2.4 software (PD2.4, Thermo Fisher Scientific) on the human FASTA database downloaded from UniProt (reviewed, release 2021_06_03, 20380 entries, https://uniprot.org/, complemented with sequences of likely contaminants, such as MBP, streptavidin, or trypsin). Precursor and fragment mass tolerances were set at 7 ppm and 0.6 Da, respectively, and up to two missed cleavages were allowed. […]"}}}
{"molecule": "B1", "values": [{"measurement": "pKapp", "setting": "full-length SNX27", "result": 5.23}]}
{"molecule": "B2", "values": [{"measurement": "pKapp", "setting": "full-length SNX27", "result": 5.04}]}
{"molecule": "B3", "values": [{"measurement": "pKapp", "setting": "full-length SNX27", "result": 5.47}]}
{"molecule": "B4", "values": [{"measurement": "Ratio_HU", "setting": "SNX27_PDZ [1]; SNX27/MBP, sheet \"SNX27&Jurkat\"", "result": 0.6368}, {"measurement": "BI_HU", "setting": "SNX27_PDZ [1]; SNX27 bait vs MBP control, sheet \"SNX27&Jurkat\"", "result": 0.3632}, {"measurement": "pKapp_HU_not_filtered", "setting": "SNX27_PDZ [1]; SNX27 bait, not filtered for significance", "result": 4.758}, {"measurement": "FC_HU", "setting": "SNX27_PDZ [1]; SNX27 vs MBP control, sheet \"SNX27&Jurkat\"", "result": -0.651}, {"measurement": "Ratio_AP", "setting": "SNX27_PDZ [2]; SNX27/MBP", "result": 128.984}, {"measurement": "FC_AP", "setting": "SNX27_PDZ [2]; SNX27 vs MBP", "result": 7.011}, {"measurement": "BINDER_AP", "setting": "SNX27_PDZ [2]; BINDS / DOES NOT BIND", "result": "BINDS"}]}
